Experiment [1] has as its target giantin (human (endogenous in HeLa, LNCaP, PC-3, liver tissue)) (UniProt Q14789). Nature of the experiment: Western blot of lysates. The settings on record: remark: other sources report otherwise. (In western blotting, separated proteins are transferred to a membrane and probed.)
Experiment [2] has as its target giantin (rat hepatocytes) (rat (endogenous in primary hepatocytes)). Nature of the experiment: Western blot of lysates.

The stoichiometry N is the number of molecules, sites or subunits per partner or assembly.

In experiment [1], giantin, Q14789 1-3259 gave a stoichiometry N of 2.

On to “giantin (rat hepatocytes) (natural protein)”, for which the stoichiometry N in experiment [2] was 2.

The values above are taken from article doi:10.1101/296517.
